Test [1] deals with T1, human CD203c His-tagged recombinant protein (human, UniProt O14638 49-875, limits assumed).
T1 construct: also called ENPP3; not shown: His tag
T1 sequence (looked up): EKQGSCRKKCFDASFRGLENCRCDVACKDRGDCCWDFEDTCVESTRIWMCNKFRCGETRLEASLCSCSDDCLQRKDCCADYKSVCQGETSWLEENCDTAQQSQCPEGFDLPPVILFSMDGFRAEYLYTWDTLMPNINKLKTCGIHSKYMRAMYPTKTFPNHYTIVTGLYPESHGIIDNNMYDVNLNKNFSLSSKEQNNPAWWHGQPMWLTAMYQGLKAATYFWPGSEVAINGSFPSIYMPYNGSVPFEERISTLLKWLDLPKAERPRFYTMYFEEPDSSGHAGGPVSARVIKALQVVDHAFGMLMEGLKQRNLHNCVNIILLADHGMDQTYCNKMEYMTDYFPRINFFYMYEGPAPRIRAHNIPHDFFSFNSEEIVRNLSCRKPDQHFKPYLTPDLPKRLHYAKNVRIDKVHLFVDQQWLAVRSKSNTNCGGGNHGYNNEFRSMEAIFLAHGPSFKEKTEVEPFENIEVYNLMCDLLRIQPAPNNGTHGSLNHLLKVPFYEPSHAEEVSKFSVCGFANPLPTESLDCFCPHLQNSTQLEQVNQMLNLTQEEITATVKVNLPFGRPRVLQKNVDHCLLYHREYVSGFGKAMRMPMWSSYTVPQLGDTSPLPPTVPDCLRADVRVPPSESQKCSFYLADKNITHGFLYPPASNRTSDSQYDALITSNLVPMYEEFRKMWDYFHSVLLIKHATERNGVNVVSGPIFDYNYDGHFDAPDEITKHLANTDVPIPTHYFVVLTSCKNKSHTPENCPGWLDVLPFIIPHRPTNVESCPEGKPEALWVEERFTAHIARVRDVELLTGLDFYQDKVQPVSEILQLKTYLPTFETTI
Briefly: direct binding ELISA on coated recombinant human CD203c. The procedure:
(§1) Binding and cross-reactivity of the molecules to the human, rhesus, and cynomolgus CD203c was initially assessed by binding ELISA. The human CD203c His-tagged recombinant protein and the rhesus monkey CD203c His-tagged recombinant protein were coated to the surface of MaxiSorp™ flat-bottom 96 well plates at a concentration of 1 μg/ml. The purified samples were titrated in 5-fold serial dilutions starting from 100 nM and allowed to bind to the coated antigens. The IgGs were detected using mouse anti-human IgG conjugated to horseradish peroxidase. Binding signals were visualized with 3,3′,5,5′-Tetramethylbenzidine Substrate Solution (TMB) and the absorbance measured at 450 nm.
Background: ELISA stands for enzyme-linked immunosorbent assay.

The target of test [2] is T2, rhesus monkey CD203c His-tagged recombinant protein (rhesus monkey, UniProt F6TH66 31-874).
T2 construct: also called rhesus CD203c; not shown: His tag
T2 sequence: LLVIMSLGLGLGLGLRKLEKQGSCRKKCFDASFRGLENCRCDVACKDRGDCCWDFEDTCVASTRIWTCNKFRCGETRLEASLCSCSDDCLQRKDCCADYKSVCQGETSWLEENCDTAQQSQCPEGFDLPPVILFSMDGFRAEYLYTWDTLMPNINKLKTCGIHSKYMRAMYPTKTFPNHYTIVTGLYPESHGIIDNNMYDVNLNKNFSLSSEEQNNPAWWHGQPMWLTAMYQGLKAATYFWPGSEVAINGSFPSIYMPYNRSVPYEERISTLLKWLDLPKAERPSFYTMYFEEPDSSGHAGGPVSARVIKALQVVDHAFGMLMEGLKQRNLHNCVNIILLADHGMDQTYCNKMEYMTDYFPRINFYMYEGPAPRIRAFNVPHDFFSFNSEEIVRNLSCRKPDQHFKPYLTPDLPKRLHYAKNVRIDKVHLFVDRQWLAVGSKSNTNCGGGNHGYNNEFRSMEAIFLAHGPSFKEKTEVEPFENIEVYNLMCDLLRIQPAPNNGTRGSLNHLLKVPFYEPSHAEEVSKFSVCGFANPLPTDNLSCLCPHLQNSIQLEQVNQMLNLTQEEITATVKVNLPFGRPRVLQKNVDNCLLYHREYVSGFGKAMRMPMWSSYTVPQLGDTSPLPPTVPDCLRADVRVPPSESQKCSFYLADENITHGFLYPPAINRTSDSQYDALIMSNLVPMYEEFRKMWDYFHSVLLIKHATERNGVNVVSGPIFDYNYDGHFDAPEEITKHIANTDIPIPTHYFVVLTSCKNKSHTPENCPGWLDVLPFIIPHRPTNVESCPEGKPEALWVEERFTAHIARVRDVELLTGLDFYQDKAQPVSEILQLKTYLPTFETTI
Briefly: direct binding ELISA on coated recombinant rhesus CD203c. As to the method:
as §1

Test [3] deals with T3, human CD203c expressed on the surface of KU812 cells (human, UniProt O14638 1-875).
T3 construct: whole, on cells; also called cell-surface CD203c; cell surface CD203c on KU812 cells
T3 sequence (looked up): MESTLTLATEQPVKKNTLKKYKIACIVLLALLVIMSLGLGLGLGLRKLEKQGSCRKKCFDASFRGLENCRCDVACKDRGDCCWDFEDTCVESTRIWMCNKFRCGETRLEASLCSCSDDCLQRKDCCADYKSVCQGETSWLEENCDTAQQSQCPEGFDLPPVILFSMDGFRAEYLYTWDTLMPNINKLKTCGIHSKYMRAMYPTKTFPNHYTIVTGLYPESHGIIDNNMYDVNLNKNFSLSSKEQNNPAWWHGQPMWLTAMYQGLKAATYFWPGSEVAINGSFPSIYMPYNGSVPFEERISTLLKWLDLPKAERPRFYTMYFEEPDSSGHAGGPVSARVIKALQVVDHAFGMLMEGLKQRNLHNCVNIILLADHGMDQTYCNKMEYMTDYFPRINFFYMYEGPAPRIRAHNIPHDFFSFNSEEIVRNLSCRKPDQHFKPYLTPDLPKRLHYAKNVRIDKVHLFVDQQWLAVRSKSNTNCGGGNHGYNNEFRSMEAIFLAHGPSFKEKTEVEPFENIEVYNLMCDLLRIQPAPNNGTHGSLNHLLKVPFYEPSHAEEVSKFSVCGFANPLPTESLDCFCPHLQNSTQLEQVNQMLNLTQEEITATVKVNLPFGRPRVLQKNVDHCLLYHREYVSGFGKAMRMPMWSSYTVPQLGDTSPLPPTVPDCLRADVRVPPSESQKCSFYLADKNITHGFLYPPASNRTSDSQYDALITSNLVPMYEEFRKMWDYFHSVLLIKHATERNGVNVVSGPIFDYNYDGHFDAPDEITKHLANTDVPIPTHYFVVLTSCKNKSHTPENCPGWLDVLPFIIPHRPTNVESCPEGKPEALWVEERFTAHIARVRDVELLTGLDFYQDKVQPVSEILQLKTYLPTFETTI
Put plainly: flow cytometry on KU812 cells. The procedure:
All treatments were performed on cells seeded in T75 flasks at a seeding density of 0.3e6/ml. Cells were cultured in the presence of 80 ng/ml of SCF and treated with 20 ng/ml of IL3 24 hours prior to antibody staining. Following SCF/IL3 treatment, cells were harvested and stained with live dead stain (Zombie UV Biolegend 423108). Cells were then stained with a titration of anti-CD203c antibodies/bispecifics or respective isotype controls in a 5-fold dilution series starting at 50 μg/mL and detected with Anti human-Fc AF647 antibody (JIR 109-605-098). Samples were subsequently run on a Yeti analyzer, gating on 10K live cells. Subsequent analysis was performed using FlowJo software and data represented as MFI (median fluorescent intensity).

B1: anti-CD203c 1.27 IgG (parental clone, MH1 common light chain) (antibody, V domains shown)
VH: EVQLVQSGAEVKKPGESLKISCKGSGYRFTSYWIGWVRQMPGKGLEWMGIIYPGDSDTRYSPSFQGQVTISADKSISTAYLQWSSLKASDTAMYYCARKDYYYYAMDVWGQGTTVTVSS
VL: DIQMTQSPSSLSASVGDRVTITCRASQGIRTNLAWFQQKPGKAPKSLIYAASSLQSGVPSRFSGSGSGTDFTLTISSLQPEDFATYYCQQYNSYPRTFGGGTKVEIK
notes: IgG1null (human IgG1 with L234A, L235A, G237A) and human Ckappa
As usually defined, the EC50 (read off the curve) is the concentration at which the effect is half-maximal. By EC50 is commonly meant the concentration that produces a half-maximal response. As to B1, the “EC50 (read off the curve)” value in test [1] was around 7 nM. The binding result in test [2] is “binds”. This molecule also returned an EC50 in test [3] of 98.2 nM.

Source of the values: patent US20260028424A1 (GRANULAR THERAPEUTICS, published 2026).
